For test [1], the target named is T1, hCD32a-H131 (FcgRIIa-H131) (human, UniProt P12318 36-218).
T1 construct: not shown: C-terminal his-tag
T1 sequence (looked up): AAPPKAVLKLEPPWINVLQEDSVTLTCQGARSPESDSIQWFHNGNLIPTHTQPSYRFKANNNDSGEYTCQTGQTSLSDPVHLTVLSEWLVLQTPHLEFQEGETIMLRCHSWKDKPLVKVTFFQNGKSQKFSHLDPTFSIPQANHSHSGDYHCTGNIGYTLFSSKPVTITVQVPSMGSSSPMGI
Put plainly: SPR, FcgR analyte titration on protein A captured dAb-Fc. The protocol:
(§1) A second SPR assay for testing the interaction between antibodies or dAb-Fc proteins with FcgR proteins is a protein A capture method. These experiments are also performed on either a Biacore™ T100 or Biacore™ T200 instrument (GE Healthcare) at 25° C. For these studies, protein A is immobilized on flow cells 1-4 of a CM5 sensor chip using standard ethyl (dimethylaminopropyl) carbodiimide (EDC)/N-hydroxysuccinimide (NHS) chemistry, with ethanolamine blocking, in a running buffer of 10 mM HEPES pH 7.4, 150 mM NaCl, 3 mM EDTA, 0.05% surfactant p20, to a density of ˜3000 RU.

Another test addresses T2, hCD32b (FcgRIIb) (human, UniProt P31994 46-217).
T2 construct: not shown: C-terminal his-tag
T2 sequence (looked up): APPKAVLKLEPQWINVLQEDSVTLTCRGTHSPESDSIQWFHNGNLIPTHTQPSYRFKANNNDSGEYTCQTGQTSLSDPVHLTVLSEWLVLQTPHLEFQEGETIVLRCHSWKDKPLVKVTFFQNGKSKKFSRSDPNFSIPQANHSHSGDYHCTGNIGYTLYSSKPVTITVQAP
Described as above. The protocol:
as §1

In test [2] the target is T3, hCD32a-R131 (FcgRIIa-R131) (human, UniProt P12318 36-218).
T3 construct: not shown: C-terminal his-tag
T3 sequence (looked up): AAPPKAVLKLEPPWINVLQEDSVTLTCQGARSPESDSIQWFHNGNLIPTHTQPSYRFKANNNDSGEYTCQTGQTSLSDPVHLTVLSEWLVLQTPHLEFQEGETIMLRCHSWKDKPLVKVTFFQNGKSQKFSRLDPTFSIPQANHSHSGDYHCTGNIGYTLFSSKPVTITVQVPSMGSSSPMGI
The test is described as above. The protocol: as §1

Test [3] deals with T4, hCD16a-V158 (FcgRIIIa-V158) (human, UniProt P08637 17-208).
T4 construct: not shown: C-terminal his-tag
The description is as above. As to the method:
as §1

In test [4] the target is T5, hCD16b-NA2 (FcgRIIIb-NA2) (human, UniProt O75015 17-200, limits assumed).
T5 construct: not shown: C-terminal his-tag
Described as above. The protocol:
as §1

The target of the next test is T6, hCD40-Fc (human, UniProt P25942 21-193).
T6 construct: not shown: Fc part of hCD40-Fc, not described
In words: SPR, immobilized hCD40-Fc, dAb-Fc analyte (avidity).

For test [5], the target named is T7, N-terminal domain of hCD73 (residues 26-336 of human CD73), his-tagged (human, UniProt P21589 26-336).
T7 construct: also called N-hCD73; N-hCD73-his
T7 sequence (looked up): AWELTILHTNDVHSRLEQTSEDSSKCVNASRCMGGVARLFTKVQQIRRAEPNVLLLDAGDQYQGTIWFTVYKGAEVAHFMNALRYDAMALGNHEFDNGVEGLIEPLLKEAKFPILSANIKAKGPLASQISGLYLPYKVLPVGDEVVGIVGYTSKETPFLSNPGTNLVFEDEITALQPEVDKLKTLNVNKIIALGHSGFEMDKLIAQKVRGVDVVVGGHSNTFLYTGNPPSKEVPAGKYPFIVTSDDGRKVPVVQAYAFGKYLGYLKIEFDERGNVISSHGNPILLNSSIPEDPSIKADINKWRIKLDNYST
In words: SPR Biacore T100, mAb captured on protein A, N-hCD73-his analyte, 25 C; separate experiment. As to the method: (§2) The affinity of the antibodies for human CD73 was measured to determine whether the change of the constant region affects them. The affinities were determined by Surface Plasmon Resonance (SPR) as follows. […] For these experiments, protein A (Pierce) was immobilized to a density of 3000-4000 RU on flow cells 1-4 of a CM5 sensor chip (GE Healthcare) using standard ethyl(dimethylaminopropyl) carbodiimide (EDC)/N-hydroxysuccinimide (NHS) chemistry, with ethanolamine blocking, in a running buffer of 0.01 M HEPES pH 7.4, 0.15 M NaCl, 3 mM EDTA, 0.005% v/v tween 20. Kinetic experiments were performed by first capturing antibodies (5-10 ug/ml) on the protein A surfaces using a 30 s contact time at 10 ul/min, with binding of 600, 200, 66.7, 22.2, 7.4, and 2.5 nM N-hCD73-his, using a 180 s association time and 360 s dissociation time at a flow rate of 30 ul/min. The running buffer for the kinetic experiments was 10 mM sodium phosphate, 130 mM sodium chloride, 0.05% tween 20, pH 7.1. The surfaces were regenerated after each cycle using two 30 s pulses of 10 mM glycine pH 1.5 at a flow rate of 30 μl/min. Sensogram data was double-referenced and then fitted to a 1:1 Langmuir model using Biacore T100 evaluation software v2.0.4, to determine the association rate constant (ka), the dissociation rate constant (kd), and the equilibrium dissociation constant (KD).

Test [6] concerns the target T7, N-terminal domain of hCD73 (residues …). Put plainly: SPR Biacore T100, mAb captured on protein A, N-hCD73-his analyte, 25 C. As to the method:
as §2

The target of test [7] is T8, human CD73 on human tumor cell lines (human, UniProt P21589 27-549).
T8 sequence (looked up): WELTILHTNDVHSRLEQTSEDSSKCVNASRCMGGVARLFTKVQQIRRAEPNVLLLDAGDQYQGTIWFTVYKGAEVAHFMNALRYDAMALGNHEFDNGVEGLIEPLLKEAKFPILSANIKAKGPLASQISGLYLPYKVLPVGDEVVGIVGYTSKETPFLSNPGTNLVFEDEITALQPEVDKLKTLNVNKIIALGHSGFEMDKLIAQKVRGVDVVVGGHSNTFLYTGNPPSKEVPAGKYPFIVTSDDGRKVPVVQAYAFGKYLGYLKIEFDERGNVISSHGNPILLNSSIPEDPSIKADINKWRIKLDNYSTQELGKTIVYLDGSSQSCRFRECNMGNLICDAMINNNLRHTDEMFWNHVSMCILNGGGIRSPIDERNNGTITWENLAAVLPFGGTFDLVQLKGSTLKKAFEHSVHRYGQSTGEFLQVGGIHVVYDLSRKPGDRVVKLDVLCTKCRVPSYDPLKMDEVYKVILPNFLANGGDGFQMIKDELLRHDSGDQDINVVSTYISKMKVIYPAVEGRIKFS
Put plainly: cell-based or functional assay.

The target in test [8] is T8, human CD73 on human tumor cell lines. In words: cell-based or functional assay. The source holds these as a separate data set.
A further test addresses T9, human GITR (human, UniProt Q9Y5U5 26-241).
T9 sequence (looked up): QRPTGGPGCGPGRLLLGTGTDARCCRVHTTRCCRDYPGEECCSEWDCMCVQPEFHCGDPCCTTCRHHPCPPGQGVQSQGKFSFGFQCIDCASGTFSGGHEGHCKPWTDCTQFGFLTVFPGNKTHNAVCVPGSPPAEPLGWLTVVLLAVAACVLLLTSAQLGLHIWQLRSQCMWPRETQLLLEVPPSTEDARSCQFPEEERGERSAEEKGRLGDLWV
In words: cell-based or functional assay.

Where only a bound is given, the exact number is not on record here.

T6 sequence (P25942 21-193): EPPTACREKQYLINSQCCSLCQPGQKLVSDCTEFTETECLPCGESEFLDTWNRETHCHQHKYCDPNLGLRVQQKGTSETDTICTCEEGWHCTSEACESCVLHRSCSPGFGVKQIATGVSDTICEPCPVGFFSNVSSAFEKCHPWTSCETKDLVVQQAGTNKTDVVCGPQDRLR
T4 sequence (P08637 17-208 F176V limits assumed): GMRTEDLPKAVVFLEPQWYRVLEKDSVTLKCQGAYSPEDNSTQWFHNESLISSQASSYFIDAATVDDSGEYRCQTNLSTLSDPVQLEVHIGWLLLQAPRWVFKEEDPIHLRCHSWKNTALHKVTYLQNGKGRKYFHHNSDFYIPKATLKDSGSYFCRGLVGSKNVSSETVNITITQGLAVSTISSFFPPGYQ
T5 sequence (O75015 17-200 N65S limits assumed): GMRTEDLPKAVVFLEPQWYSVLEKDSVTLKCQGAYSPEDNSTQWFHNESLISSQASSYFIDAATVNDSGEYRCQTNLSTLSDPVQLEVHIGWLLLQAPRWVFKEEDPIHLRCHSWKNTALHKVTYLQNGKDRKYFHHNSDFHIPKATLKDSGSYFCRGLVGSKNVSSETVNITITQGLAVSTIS

B1: 3h56-269-IgG1.1f (Fc fusion)
chain: EVQLLESGGGLVQPGGSLRLSCAASGFTFRDYEMWWVRQAPGKGLERVSAINPQGTRTYYADSVKGRFTISRDNSKNTLYLQMNSLRAEDTAVYYCAKLPFRFSDRGQGTLVTVSSASTEPKSCDKTHTCPPCPAPEAEGAPSVFLFPPKPKDTLMISRTPEVTCVVVDVSHEDPEVKFNWYVDGVEVHNAKTKPREEQYNSTYRVVSVLTVLHQDWLNGKEYKCKVSNKALPSSIEKTISKAKGQPREPQVYTLPPSREEMTKNQVSLTCLVKGFYPSDIAVEWESNGQPENNYKTTPPVLDSDGSFFLYSKLTVDKSRWQQGNVFSCSVMHEALHNHYTQKSLSLSPGK
notes: anti-CD40 dAb-Fc
In the case of B1, the Kd (in test [1]; in the test with hCD32b (FcgRIIb); in test [2]; in [3]; in [4]) was more than 5000 nM each time.

B2: 3h56-269-IgG1.3f (Fc fusion)
chain: EVQLLESGGGLVQPGGSLRLSCAASGFTFRDYEMWWVRQAPGKGLERVSAINPQGTRTYYADSVKGRFTISRDNSKNTLYLQMNSLRAEDTAVYYCAKLPFRFSDRGQGTLVTVSSASTEPKSCDKTHTCPPCPAPEAEGAPSVFLFPPKPKDTLMISRTPEVTCVVVDVSHEDPEVKFNWYVDGVEVHNAKTKPREEQYNSTYRVVSVLTVLHQDWLNGKEYKCKVSNKALPAPIEKTISKAKGQPREPQVYTLPPSREEMTKNQVSLTCLVKGFYPSDIAVEWESNGQPENNYKTTPPVLDSDGSFFLYSKLTVDKSRWQQGNVFSCSVMHEALHNHYTQKSLSLSPGK
notes: dAb-Fc fusion protein
On to B2, for which the KDapparent in the test with hCD40-Fc is less than 1 nM.

B3: 3h56-269-IgG1.1f (Fc fusion)
chain: EVQLLESGGGLVQPGGSLRLSCAASGFTFRDYEMWWVRQAPGKGLERVSAINPQGTRTYYADSVKGRFTISRDNSKNTLYLQMNSLRAEDTAVYYCAKLPFRFSDRGQGTLVTVSSASTEPKSCDKTHTCPPCPAPEAEGAPSVFLFPPKPKDTLMISRTPEVTCVVVDVSHEDPEVKFNWYVDGVEVHNAKTKPREEQYNSTYRVVSVLTVLHQDWLNGKEYKCKVSNKALPSSIEKTISKAKGQPREPQVYTLPPSREEMTKNQVSLTCLVKGFYPSDIAVEWESNGQPENNYKTTPPVLDSDGSFFLYSKLTVDKSRWQQGNVFSCSVMHEALHNHYTQKSLSLSPGK
notes: dAb-Fc fusion protein
B3: the KDapparent with hCD40-Fc is less than 1 nM.

B4: CD73.10-IgG2-C219S-IgG1.1 (antibody)
heavy: QVQLVESGGGVVQPGRSLRLSCAASGFTFSNYGMHWVRQAPGKGLEWVAVIWYDESNKYYPDSVKGRFTISRDNSKNTLYLQMNSLRAEDTAVYYCARGGSSWYPDSFDIWGQGTMVTVSSASTKGPSVFPLAPCSRSTSESTAALGCLVKDYFPEPVTVSWNSGALTSGVHTFPAVLQSSGLYSLSSVVTVPSSNFGTQTYTCNVDHKPSNTKVDKTVERKSCVECPPCPAPPVAGPSVFLFPPKPKDTLMISRTPEVTCVVVDVSHEDPEVKFNWYVDGVEVHNAKTKPREEQYNSTYRVVSVLTVLHQDWLNGKEYKCKVSNKALPSSIEKTISKAKGQPREPQVYTLPPSREEMTKNQVSLTCLVKGFYPSDIAVEWESNGQPENNYKTTPPMLDSDGSFFLYSKLTVDKSRWQQGNVFSCSVMHEALHNHYTQKSLSLSPG
light: not shown
notes: anti-CD73; also called CD73.10-IgG2CS-IgG1.1f; CD73.10-Vh-hHC-IgG2-C219S-IgG1.1f
Take B4: in test [5], the equilibrium dissociation constant (Kd) was determined as 6.8 nM, the off-rate constant (koff) is 0.0016 s⁻¹ and the kon was 230000 M⁻¹ s⁻¹. In test [6], this molecule came in with a dissociation constant (Kd) of 5.7 nM, an off-rate constant (koff) of 0.0014 s⁻¹ and a kon of 240000 M⁻¹ s⁻¹. In test [7], the “EC50 of CD73 internalization, Calu6, 2 h” value amounted to 0.87 nM and the “Ymax of CD73 internalization, Calu6, 2 h” value is 99 % of 100 nM 11F11. In test [8], the “% internalization, Calu6” value is 91%; the “% internalization, H2030” value worked out at 87%; the “% internalization, H2228” value amounted to 92%; the “% internalization, HCC15” value was 91%. Further, in test [8], the “T1/2 internalization, Calu6” value amounted to 3.1 min; the “T1/2 internalization, H2030” value came to 4.3 min; the “T1/2 internalization, H2228” value was 9.4 min; the “T1/2 internalization, HCC15” value was 3 min.

B5: GITR.6.G2 (antibody, human IgG2, kappa)
heavy: QVQLVESGGGVVQPGRSLRLSCAASGFTFSSYGMHWVRQAPGKGLEWVAVIWYEGSNKYYADSVKGRFTISRDNSKNTLYLQMNSLRAEDTAVYYCARGGSMVRGDYYYGMDVWGQGTTVTVSSASTKGPSVFPLAPCSRSTSESTAALGCLVKDYFPEPVTVSWNSGALTSGVHTFPAVLQSSGLYSLSSVVTVPSSNFGTQTYTCNVDHKPSNTKVDKTVERKCCVECPPCPAPPVAGPSVFLFPPKPKDTLMISRTPEVTCVVVDVSHEDPEVQFNWYVDGVEVHNAKTKPREEQFNSTFRVVSVLTVVHQDWLNGKEYKCKVSNKGLPAPIEKTISKTKGQPREPQVYTLPPSREEMTKNQVSLTCLVKGFYPSDIAVEWESNGQPENNYKTTPPMLDSDGSFFLYSKLTVDKSRWQQGNVFSCSVMHEALHNHYTQKSLSLSPGK
light: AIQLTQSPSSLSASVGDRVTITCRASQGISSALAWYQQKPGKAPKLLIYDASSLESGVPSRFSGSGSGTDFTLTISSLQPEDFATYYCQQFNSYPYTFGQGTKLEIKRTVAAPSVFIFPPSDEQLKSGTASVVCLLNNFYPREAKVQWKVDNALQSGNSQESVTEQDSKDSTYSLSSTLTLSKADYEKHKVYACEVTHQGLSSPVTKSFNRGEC
On to B5, for which, in the test with human GITR, the “NFKB signaling in TCR activated CD4+ T cells, EC50” value came out at 12.8 nM; the “NFKB signaling in TCR activated CD4+ T cells, Emax” value turned out to be 69%; the “NFKB signaling in TCR activated CD8+ T cells, EC50” value was 9 nM; the “NFKB signaling in TCR activated CD8+ T cells, Emax” value is 85%.

The values above are taken from US20220106400A1 (Bristol-Myers Squibb, published 2022).
